Experiments:
ESCs [1] = experiment: survival with DNA repair inhibitors (HR, NHEJ); assay type: cell-based, mouse; conditions: TRIM66-depleted ESCs under EPI treatment with HR or NHEJ inhibitor
Text: reagent (Fig. S9b, c). We further performed the competitive survival experiment through co-culturing the GFP-labeled wild-type ESCs and TRIM66 KO ESCs under EPI treatment, and our […]
was indeed required for ESC to survive DNA damage (Fig. S9d). […]
localization of γ-H2AX foci and HR repair related proteins (Rad51 and CtIP) or NHEJ repair related protein (DNA-PKcs) in ESCs (Fig. 5f, 5g, S11d, and S11e). We further applied two specific inhibitors (YU238259 and NU7441) to block HR and NHEJ repair respectively (Stachelek et al., […]
affect both HR and NHEJ repair pathways in ESCs (Fig. S11f). To better clarify the mechanisms of TRIM66 involved in the regulation of DNA damage, w e performed the immunofluorescence assay […]
to bind at DNA damage sites (Fig. S11a). […] We also analyzed the relevance of […]
depletion of TRIM66 disrupted the negative correlation of H3K56ac and γ-H2AX (Fig. 5d). In view of the recognition of TRIM66 and H3K56ac (Fig.2 and Fig. S10), we speculated that the loose winding of nucleosomal DNA nearby the DNA damage sites might expose H3K56ac to its reader TRIM66, while TRIM66 deficiency impeded the erasure of H3K56ac at DNA damage sites and the recruitment of DNA repair proteins. […]

ESCs [2] = experiment: survival analysis of ESCs treated with DNA-damaging agents; assay type: cell-based, mouse; conditions: TRIM66-depleted ESCs
Description: Furthermore, we performed competitive survival experiment through mixing the equal amount of TRIM66-KO ESCs and green fluorescent protein (GFP)-labeled WT ESCs (WT-GFP), then co-cultured for 5 days under EPI treatment.
For the culture of ESCs, the medium was changed every day and the cells were passaged every 2 days. The 293T cells were cultured in DMEM containing 10% fetal bovine serum. […]
a, The expression level of DNA damage related genes (Cdkn1a, Gadd45a, and p53) in WT and TRIM66 KO ESCs […]
assay c in WT and TRIM66 KO ESCs treated with EPI. e, Clonal competition assay of WT and TRIM66 KO ESCs treated with EPI in different days (day 1, 3, and 5). Representative images show the mixtures of WT-GFP and […] clones. Scale bar, 10 μm.* represents a difference from WT ESCs or GFP-negative ESC clones at day 1, # indicates a difference from GFP-positive ESC clones at day 1. Statistical significance is determined by two-tailed
(1 picture or pasted object on this page, not shown here)

TRIM66_(965-1160) N969A [3] = molecular target: T1, TRIM66_(965-1160) N969A (human, UniProt O15016 965-1160, N969A); experiment: ITC
Target sequence in this assay (O15016 1100-1295 N1104A): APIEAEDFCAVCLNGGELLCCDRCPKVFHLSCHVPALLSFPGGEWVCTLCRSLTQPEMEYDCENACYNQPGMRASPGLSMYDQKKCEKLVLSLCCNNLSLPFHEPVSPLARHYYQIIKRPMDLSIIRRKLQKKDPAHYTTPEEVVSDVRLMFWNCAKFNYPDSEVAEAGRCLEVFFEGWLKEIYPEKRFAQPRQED

TRIM66_(965-1160) E968A [4] = molecular target: T2, TRIM66_(965-1160) E968A (human, UniProt O15016 965-1160, E968A); experiment: ITC
Target sequence in this assay (O15016 1100-1295 E1103A): as the sequence (O15016 1100-1295 N1104A) above, with E4A, A5N counted along it

TRIM33_(882-1087) = molecular target: T3, TRIM33_(882-1087) (human, UniProt Q9UPN9 882-1087); experiment: ITC; 0.7–4 mM peptide injected into a cell with 0.05 or 0.11–0.15 mM TRIM66-PHD-Bromo (or its mutants), 0.12 mM TRIM24-PHD-Bromo or 0.05 mM TRIM33 PHD-Bromo; 25 °C; 20 mM Tris, 100 mM NaCl, pH 7.5; MicroCal PEAQ-ITC; single measurement; conditions: both partners purified
T3 construct: also called TRIM33 PHD-Bromo; TRIM33 PHD-Bromodomain; source: E. coli BL21 (DE3), purified (Ni-chelating column, SUMO protease, second nickel column, Superdex 75)
T3 sequence (looked up): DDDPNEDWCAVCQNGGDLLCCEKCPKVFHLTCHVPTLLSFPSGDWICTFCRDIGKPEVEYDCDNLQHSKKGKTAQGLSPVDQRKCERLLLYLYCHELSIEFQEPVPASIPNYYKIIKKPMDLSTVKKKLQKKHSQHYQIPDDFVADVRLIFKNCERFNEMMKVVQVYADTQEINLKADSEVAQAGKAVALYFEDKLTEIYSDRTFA

TRIM24_(824-1006) = molecular target: T4, TRIM24_(824-1006) (human, UniProt O15164 824-1006); experiment: as above; conditions: both partners purified
T4 construct: TRIM24, human, PHD-Bromodomain, residues 824-1006, amplified from a human bone marrow cDNA library, in pET-SUMO-28a (+); also called TRIM24-PHD-Bromo; TRIM24 PHD-Bromodomain; source: E. coli BL21 (DE3), purified (Ni-chelating column, SUMO protease, second nickel column, Superdex 75)
T4 sequence (looked up): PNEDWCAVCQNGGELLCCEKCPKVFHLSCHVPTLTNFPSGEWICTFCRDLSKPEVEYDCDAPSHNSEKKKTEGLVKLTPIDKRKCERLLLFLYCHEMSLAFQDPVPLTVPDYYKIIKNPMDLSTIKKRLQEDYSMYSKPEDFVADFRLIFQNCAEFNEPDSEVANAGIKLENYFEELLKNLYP

[5] = molecular target: T5, TRIM24_(824-1006) (PHD-Bromodomain) (human, UniProt O15164 824-1006); experiment: ITC; MicroCal PEAQ-ITC, 25 °C, 20 mM Tris, 100 mM NaCl, pH 7.5; 0.7-4 mM peptide injected into the cell with 0.12 mM TRIM24-PHD-Bromo, 0.05 mM TRIM33 PHD-Bromo, or 0.05 or 0.11-0.15 mM TRIM66-PHD-Bromo (or its mutants); single measurement, errors from the fitting curve; conditions: both partners purified
T5 construct: TRIM24 PHD-Bromodomain, Homo sapiens, residues 824-1006 of UniProt O15164 (Isoform long); also called TRIM24-PHD-Bromo; source: E. coli BL21 (DE3), purified (Ni column, SUMO protease, second Ni column, Superdex 75)
T5 sequence (looked up): T4 sequence (looked up)

[6] = molecular target: T6, TRIM33_(882-1087) (PHD-Bromodomain) (human, UniProt Q9UPN9 882-1087); experiment: as above; conditions: both partners purified
T6 construct: also called TRIM33 PHD-Bromo; source: E. coli BL21 (DE3), purified (Ni column, SUMO protease, second Ni column, Superdex 75)
T6 sequence (looked up): T3 sequence (looked up)

TRIM66_(965-1160) N969A [7] = molecular target: T1, TRIM66_(965-1160) N969A; experiment: ITC; MicroCal PEAQ-ITC, 25 °C, 20 mM Tris, 100 mM NaCl, pH 7.5; 0.7-4 mM peptide injected into the cell with 0.12 mM TRIM24-PHD-Bromo, 0.05 mM TRIM33 PHD-Bromo, or 0.05 or 0.11-[…] TRIM66-PHD-Bromo (or its mutants); single measurement, errors from the fitting curve
TRIM66_(965-1160) E968A [8] = molecular target: T2, TRIM66_(965-1160) E968A; experiment: as above
[9] = molecular target: TRIM66-WT_(965-1160) (PHD-Bromodomain) (human) (UniProt O15016); experiment: as above
[10] = molecular target: TRIM66-MUT_(968-1160) (PHD-Bromodomain) (human) (UniProt O15016); experiment: as above

Question: Which “survival rate of TRIM66-depleted ESCs (in words)” value (ESCs [1]) does the source give for `O=c1cc(N2CCOCC2)oc2c(-c3cccc4c3sc3ccccc34)cccc12` [NU7441] here?
Answer: Its value is “significant decrease in the survival rate”.

Question: How did the “survival rate of TRIM66-depleted ESCs (in words)” value (ESCs [1]) turn out when YU238259 was run?
Answer: The value was “significant decrease in the survival rate”.

Question: bleomycin was tested. Which “survival of TRIM66-KO versus WT ESCs (in words)” value (ESCs [2]) did it give?
Answer: Its value is “significantly impaired”.

Question: What about the “survival of TRIM66-KO versus WT ESCs (in words)” value (ESCs [2]; listed as bleomycin) of the same molecule?
Answer: The value was “significantly reduced the survival rates”.

B1: H3_(1-12) peptide, unmodified (peptide, UniProt P68431 2-13, looked up)
peptide: ARTKQTARKSTG
notes: histone H3, residues 1-12, unmodified; also called unH3_(1-12); unmodified H3_(1-12); source: synthetic peptide (GL Biochem, Shanghai)
Question: How did the Kd (TRIM66_(965-1160) N969A [3]) turn out when B1 was run?
Answer: The Kd was 72.6 µM.

Question: And the Kd (TRIM66_(965-1160) E968A [4])?
Answer: The Kd was 34.8 µM.

Question: What about the Kd (TRIM33_(882-1087)) of the same molecule?
Answer: The Kd was 3.39 µM.

Question: And the Kd (TRIM24_(824-1006))?
Answer: The Kd was 51.4 µM.

B2: H3_(1-12) peptide (peptide, UniProt P68431 2-13, looked up)
peptide: ARTKQTARKSTG
notes: histone H3.1, Homo sapiens, residues 1-12; also called unH3_(1-12); unmodified H3_(1-12); source: synthetic peptide (GL Biochem)
Question: With B2 as the molecule, how does the “stoichiometry N” value [5] read?
Answer: The value was 0.92.

Question: What about the “stoichiometry N” value [6] of the same molecule?
Answer: Its value is 1.06.

Question: What about the Kd (TRIM66_(965-1160) N969A [7]) of the same molecule?
Answer: The Kd was 72.6 µM.

Question: And the stoichiometry N (TRIM66_(965-1160) N969A [7])?
Answer: Its stoichiometry N is 0.84.

Question: And the Kd (TRIM66_(965-1160) E968A [8])?
Answer: Its Kd is 34.8 µM.

Question: What about the stoichiometry N (TRIM66_(965-1160) E968A [8]) of the same molecule?
Answer: Its stoichiometry N is 1.04.

Question: What about the stoichiometry N [9] of the same molecule?
Answer: Its stoichiometry N is 0.96.

Question: What about the stoichiometry N [10] of the same molecule?
Answer: The stoichiometry N was 1.12.

— publication PMC6753139, “TRIM66 reads unmodified H3R2K4 and H3K56ac to respond to DNA damage in embryonic stem cells” (Nature Communications, 2019)
